This note sets out measurements from patent publication US20260103529A1, “Amino Acid Sequences Directed Against the Melanocortin 4 Receptor and Polypeptides Comprising the Same for the Treatment of MC4R-Related Diseases and Disorders” (Confo Therapeutics N.V., priority 2022, published 2026).

This assay addresses human wild type MC4R (Homo sapiens, UniProt P32245). As to the kind of experiment: cAMP signaling assay (Lance Ultra HTRF). The class given is cell-based. Further details: double Twin Strep tag; expressed in transfected cells; host or cells: HEK293. Particulars: purified nanobodies, human MC4R-overexpressing HEK293 cells, read-out: potencies, MC4R-mediated dose-dependent cAMP accumulation. On the procedure: To confirm MC4R activation, dose-dependent nanobody-induced cAMP signaling was assessed (Lance Ultra HTRF). […] Binding of pN162 to the human melanocortin receptor subtypes MC1R, MC2R, MC3R, MC4R or MC5R transiently expressed as Flag-tagged receptors in HEK293T cells was assessed by flow cytometry.
(In general: In TR-FRET formats the signal depends on donor and acceptor labels being close together.)

human wild type MC4R, sequence (P32245 whole entry): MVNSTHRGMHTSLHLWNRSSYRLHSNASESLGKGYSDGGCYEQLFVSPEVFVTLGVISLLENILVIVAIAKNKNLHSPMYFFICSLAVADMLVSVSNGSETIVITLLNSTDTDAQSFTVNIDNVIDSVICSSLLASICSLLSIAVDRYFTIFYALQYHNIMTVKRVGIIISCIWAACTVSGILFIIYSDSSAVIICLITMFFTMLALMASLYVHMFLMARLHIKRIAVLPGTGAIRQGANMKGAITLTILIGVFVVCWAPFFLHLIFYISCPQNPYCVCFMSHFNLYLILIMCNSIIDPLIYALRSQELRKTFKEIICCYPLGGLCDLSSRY

B1: pN161: agonistic anti-MC4R VHH, SEQ ID NO: 314 (protein)
VHH: QVQLVESGGGLVQAGGSLRLSCAASGSISRTNGMGWYRQAPGKQRELVAAITTGGSTNYANSAKGRFTISRDNAKNTVYLQMNSLKPEDTAVYYCNARYGSSSFRWGDFEVWGQGTQVTVSS
modifications: PN0161
Regarding B1, the EC50 came out at 393 nM.

B2: pN152: agonistic anti-MC4R VHH, SEQ ID NO: 183 (protein)
VHH: QVQLVESGGGLVQPGGSLKLSCAASGSISSKSDWGWYRQAPGKERELVAQITSGGNLKYASAVTGRFTISRDNAKNTVNLLMSRLKPEDTAIYFCNARTWRLVRYYDYWGQGTQVTVSS
modifications: pN0152
In the case of B2, the EC50 was 0.7 nM.
